How the values were obtained:
Assay in all cases: EMSA
RdgC H222A = RdgC H222A (Escherichia coli, UniProt P36767 1-303, H222A)
RdgC E218R = RdgC E218R (Escherichia coli, UniProt P36767 1-303, E218R)
RdgC R118A = RdgC R118A (Escherichia coli, UniProt P36767 1-303, R118A)
RdgC R118C = RdgC R118C (Escherichia coli, UniProt P36767 1-303, R118C)
RdgC F120T K227A = RdgC F120T K227A (Escherichia coli, UniProt P36767 1-303, F120T;K227A)
RdgC Δfinger R118C = RdgC Δfinger R118C (Escherichia coli, UniProt P36767 1-303, P76G;L116T;R118C;del77-115)

| Binder | Kd (RdgC H222A) [nM] | Kd (RdgC E218R) [nM] | Kd (RdgC R118A) [nM] | Kd (RdgC R118C) [nM] | binding result (RdgC F120T K227A) | Kd (RdgC Δfinger R118C) [nM] |
| --- | --- | --- | --- | --- | --- | --- |
| RGL13/17 (dsDNA) DNA 1: GACGCTGCCGAATTCTGGCTTGCTAGGACATCTTTGCCCACGTTGACCC DNA 2: GGGTCAACGTGGGCAAAGATGTCCTAGCAAGCCAGAATTCGGCAGCGTC | 12 | 22 | 6 | 6 |  |  |
| GACGCTGCCGAATTCTGGCTTGCTAGGACATCTTTGCCCACGTTGACCC (ssDNA) [RGL13] | 5 |  | 6 | 6 | no binding | ~6000 |

Source: article PMC2965237
